Reference: patent US9908923 (MEDICAL COLLEGE OF WISCONSIN, dated 2018)
Non-standard residues stand in square brackets, D forms with d. sY = N[C@@H](Cc1ccc(OS(=O)(=O)O)cc1)C(=O)O

B1: 4ISIsYTSD10 (sTyr7 sulfopeptide) (peptide)
peptide: Ac-ISI[sY]TSD-NH2
SMILES: CC[C@H](C)[C@H](NC(C)=O)C(=O)N[C@@H](CO)C(=O)N[C@H](C(=O)N[C@@H](Cc1ccc(OS(=O)(=O)O)cc1)C(=O)N[C@H](C(=O)N[C@@H](CO)C(=O)N[C@@H](CC(=O)O)C(N)=O)[C@@H](C)O)[C@@H](C)CC
notes: Synthetic CXCR4 heptapeptide, residues 4-10
B2: 9SDNsYTEE15 (sTyr12 sulfopeptide) (peptide)
peptide: Ac-SDN[sY]TEE-NH2
SMILES: CC(=O)N[C@@H](CO)C(=O)N[C@@H](CC(=O)O)C(=O)N[C@@H](CC(N)=O)C(=O)N[C@@H](Cc1ccc(OS(=O)(=O)O)cc1)C(=O)N[C@H](C(=O)N[C@@H](CCC(=O)O)C(=O)N[C@@H](CCC(=O)O)C(N)=O)[C@@H](C)O
notes: Synthetic CXCR4 heptapeptide, residues 9-15
B3: 9SDNYTEE15 (Tyr12 peptide) (peptide)
peptide: Ac-SDNYTEE-NH2
notes: Synthetic CXCR4 heptapeptide, residues 9-15; also called unsulfated Tyr12 peptide
B4: 18SGDsYDSM24 (sTyr21 sulfopeptide) (peptide)
peptide: Ac-SGD[sY]DSM-NH2
SMILES: CSCC[C@H](NC(=O)[C@H](CO)NC(=O)[C@H](CC(=O)O)NC(=O)[C@H](Cc1ccc(OS(=O)(=O)O)cc1)NC(=O)[C@H](CC(=O)O)NC(=O)CNC(=O)[C@H](CO)NC(C)=O)C(N)=O
notes: Synthetic CXCR4 heptapeptide, residues 18-24; also called sulfated Tyr21 peptide
B5: FLAG-hCXCR4 Ile4Ala/Ile6Ala (receptor, human, UniProt P61073 1-352, looked up)
chain: MEGASAYTSDNYTEEMGSGDYDSMKEPCFREENANFNKIFLPTIYSIIFLTGIVGNGLVILVMGYQKKLRSMTDKYRLHLSVADLLFVITLPFWAVDAVANWYFGNFLCKAVHVIYTVNLYSSVLILAFISLDRYLAIVHATNSQRPRKLLAEKVVYVGVWIPALLLTIPDFIFANVSEADDRYICDRFYPNDLWVVVFQFQHIMVGLILPGIVILSCYCIIISKLSHSKGHQKRKALKTTVILILAFFACWLPYYIGISIDSFILLEIIKQGCEFENTVHKWISITEALAFFHCCLNPILYAFLGAKFKTSAQHALTSVSRGSSLKILSKGKRGGHSSVSTESESSSFHSS
notes: whole, on cells; also called CXCR4 (I4A/I6A); not shown: FLAG tag
B6: 4ISIYTSD10 (unsulfated Tyr7 peptide) (peptide)
peptide: Ac-ISIYTSD-NH2
notes: Synthetic CXCR4 heptapeptide, residues 4-10; also called CXCR4 Ile4-Asp10 heptapeptide
B7: 18SGDYDSM24 (Tyr21 peptide) (peptide)
peptide: Ac-SGDYDSM-NH2
notes: Synthetic CXCR4 heptapeptide, residues 18-24; also called unsulfated Tyr21 peptide
B8: CXCR41-38 (first 38 amino acids of CXCR4 preceded by a GlyMet dipeptide tag) (peptide)
peptide: GMMEGISIYTSDNYTEEMGSGDYDSMKEPAFREENANFNK
notes: range 1-38; Unsulfated recombinant peptide; also called CXCR4 N-terminal domain; CXCR1-38

Key:
[1] = target: T1, CXCL121 (constitutively monomeric CXCL12 variant, L55C/I58C) (Felis catus (Cat) (Felis silvestris …, UniProt O62657 22-89, engineered disulfide between Cys55 and Cys58)); experiment: NMR 1H-15N HSQC titration of peptide into 15N-labelled chemokine, chemical shift perturbations fitted to a quadratic binding equation, 298 K
T1 construct: also called CXCL12 locked monomer; LM
Protocol: (§1) Each peptide was acetylated and amidated to create uncharged N- and C-termini, respectively. […] For each titration, the chemical shift change of every residue was used to identify the binding site and calculate the interaction affinity.
(§2) Total peptide additions differed for individual peptide titrations but ranged from 0-160 equivalencies. Spectra were processed using in-house scripts and chemical shift tracking was performed using CARA software. Combined ^1H/^15N chemical shift perturbations were calculated as $((5\ \Delta\delta_H)^2+(\Delta\deltaNH)^2)^{0.5}$, where δ_H and $\deltaNH$ are the amide proton and nitrogen chemical shifts, respectively. Equilibrium dissociation constants (K_d) were determined by non-linear fitting of the combined ^1H/^15N_H chemical shift perturbations as a function of peptide concentration to a single-site quadratic equation. For a given interaction, residues with the largest chemical shift perturbations were fitted individually. The resulting K_d values and their respective fitting errors were then averaged to produce the reported affinity and standard deviation for that interaction.

[2] = target: T2, CXCL12WT (wild type CXCL12) (Homo sapiens (Human), UniProt P48061 22-89); experiment: as above
T2 construct: Recombinant, expressed and purified as previously described; [U-15N]-labelled in the NMR titrations; In monomer-dimer equilibrium; also called stromal cell-derived factor-1; SDF-1
Protocol: as §1, §2

[3] = target: T1, CXCL121 (constitutively monomeric …); experiment: ΔG = -RT ln Kd at 298 K from the NMR titration
Protocol: as §1, §2

[4] = target: T2, CXCL12WT (wild type CXCL12); experiment: ΔG = -RT ln Kd at 298 K from the NMR titration
Protocol: as §1, §2

[5] = target: T3, CXCL122 (constitutively dimeric CXCL12 variant, L36C/A65C) (Homo sapiens (Human), UniProt P48061 22-89, disulfide-locked dimer through the engineered cysteines); experiment: ΔG = -RT ln Kd at 298 K from the NMR titration; non-specific binding to sY21 position
T3 construct: it is described as a variant of CXCL12 containing L36C/A65C mutations; also called CXCL12 locked dimer; LD
Protocol: as §1, §2

[6] = target: T3, CXCL122 (constitutively dimeric CXCL12 …); experiment: ΔG = -RT ln Kd at 298 K from the NMR titration
Protocol: as §1, §2

[7] = target: T3, CXCL122 (constitutively dimeric CXCL12 …); experiment: NMR 1H-15N HSQC titration of peptide into 15N-labelled chemokine, chemical shift perturbations fitted to a quadratic binding equation, 298 K
Protocol: as §1, §2

[8] = target: T3, CXCL122 (constitutively dimeric CXCL12 …); experiment: NMR titrations
Protocol: as §1, §2

[9] = target: T2, CXCL12WT (wild type CXCL12); experiment: 125I-CXCL12 radioligand displacement on CXCR4 II/AA (I4A/I6A); displaced tracer 125I-CXCL12
[10] = target: T1, CXCL121 (constitutively monomeric …); experiment: NMR titrations (Table 1)
Protocol: as §1, §2

[11] = target: T2, CXCL12WT (wild type CXCL12); experiment: NMR titrations
Protocol: as §1, §2

T2 sequence (P48061 22-89 limits assumed): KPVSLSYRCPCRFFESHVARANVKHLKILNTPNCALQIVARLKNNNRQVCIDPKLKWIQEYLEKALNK
T3 sequence (P48061 22-89 L57C/A86C limits assumed): as the sequence (P48061 22-89 limits assumed) above, with L36C, A65C counted along it
T1 sequence (O62657 22-89 L76C/I79C limits assumed): as the sequence (P48061 22-89 limits assumed) above, with L55C, I58C counted along it

Binder | Kd [1] | Kd [2] | ΔG [3] | ΔG [4] | ΔG [5] | ΔG [6] | Kd [7] | fold stronger binding than the unsulfated variant [8] | fold stronger binding than to CXCL12WT or CXCL121 [8] | binding result [9] | fold stronger binding than the sTyr7 sulfopeptide [10] | fold higher affinity than the sTyr7 sulfopeptide [11]
B1 | 6100 µM | 4300 µM | -3.02 kcal/mol | -3.22 kcal/mol | -4.65 kcal/mol |  |  |  |  |  |  | 
B2 | 1800 µM |  | -3.74 kcal/mol | -4.09 kcal/mol | -4.87 kcal/mol |  |  |  |  |  |  | 
B3 | 2700 µM |  | -3.5 kcal/mol | -3.65 kcal/mol |  | -4.74 kcal/mol |  |  |  |  |  | 
B4 | 1600 µM | 1800 µM | -3.81 kcal/mol | -3.74 kcal/mol |  | -5.01 kcal/mol | 211 µM | 4 fold | 20 fold |  |  | 
B5 |  |  |  |  |  |  |  |  |  | binds |  | 
B6 | 1100 µM | 1900 µM | -4.03 kcal/mol | -3.71 kcal/mol | -4.6 kcal/mol |  |  |  |  |  | ~5 fold | 2 fold
B7 | 1500 µM | 2700 µM | -3.85 kcal/mol | -3.5 kcal/mol |  | -4.2 kcal/mol | 831 µM |  |  |  |  | 
B8 | 3.5 µM |  | -7.43 kcal/mol |  |  | -8.24 kcal/mol | 0.9 µM |  |  |  |  | 
